Holding throughout (conditions): both partners purified
The target of experiment [1] is T1, His-SUMO-Elm1(421-640) (S. cerevisiae, UniProt P32801 421-640).
T1 construct: Elm1 kinase, S. cerevisiae, residues 421-640 (C-terminal non-kinase domain); Cloned into pET-His6-Sumo-TEV-LIC (Addgene #29659); also called His6-Sumo-Elm1-C; pET-His6-Sumo-Elm1(421-640); source: E. coli Rosetta DE3, purified (His-tag resin, eluted with imidazole); not shown: His6, N-terminal, kept; SUMO, N-terminal, kept
T1 sequence (looked up): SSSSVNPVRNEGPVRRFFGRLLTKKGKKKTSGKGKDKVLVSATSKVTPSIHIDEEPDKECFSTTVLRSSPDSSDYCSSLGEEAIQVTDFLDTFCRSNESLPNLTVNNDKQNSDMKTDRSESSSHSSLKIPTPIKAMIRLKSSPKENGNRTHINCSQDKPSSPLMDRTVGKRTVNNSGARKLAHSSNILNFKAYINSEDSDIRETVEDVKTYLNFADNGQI
The experiment is described as follows: pull-down; 3.5 μg GST fusion on glutathione resin with 3.5 μg His6-Sumo-Elm1-C or MBP-Myo1-mTD1; 20 mM MOPS pH 7.0, 1 mM EGTA, 150 mM NaCl, 1 mM DTT, 0.1% NP-40; 1 h; five washes; Coomassie gel and anti-6xHis or anti-MBP blot.

Experiment [2] has as its target T2, 4-septin complexes/filaments (Cdc11-Cdc12[His6]-Cdc3-Cdc10-Cdc10-Cdc3-Cdc12[His6]-Cdc11) (S. cerevisiae, UniProt P32458 1-415; P32468 1-407; P32457 1-520; P25342 1-322).
T2 construct: Cdc11, S. cerevisiae septin, terminal subunit of the octamer; Cdc12, S. cerevisiae septin; Cdc3, S. cerevisiae septin; Cdc10, S. cerevisiae septin, core subunit; Octamers polymerised into filaments; copies are those of one octamer; The plasmids are from Versele et al., 2004; also called septin filaments made of Cdc11-capped octamers (four septins); four-septin complexes; source: E. coli …
The experiment is described as follows: co-sedimentation; 1.5 μg eluted GST fusion with 1.5 μg concentrated 4-septin or 5-septin complexes/filaments; 50 mM NaCl, 2 mM MgCl2, 15 mM imidazole, 12% glycerol, 50 mM Tris-HCl pH 7.5; 1 h at room temperature; 100,000 x g for 1 h at 4°C; pellet on Coomassie gel and anti-GST blot.

Experiment [3] deals with T3, 5-septin complexes/filaments (a mixture of Cdc11-Cdc12[His6]-Cdc3-Cdc10-Cdc10-Cdc3-Cdc12[His6]-Cdc11 and … (S. cerevisiae, UniProt P32458 1-415; Q07657 1-551; P32468 1-407; P32457 1-520; P25342 1-322).
T3 construct: Cdc11, S. cerevisiae septin, terminal subunit of the Cdc11-capped octamers; Shs1, S. cerevisiae septin, terminal subunit of the Shs1-capped octamers; Cdc12, S. cerevisiae septin; Cdc3, S. cerevisiae septin; Cdc10, S. cerevisiae septin, core subunit; A mixture of two kinds of octamer, each capped by two copies of either Cdc11 or Shs1; polymerised into filaments; also called septin filaments made …
The experiment is described as above.

T2 sequence (P32458 whole entry, chain 1 of 4): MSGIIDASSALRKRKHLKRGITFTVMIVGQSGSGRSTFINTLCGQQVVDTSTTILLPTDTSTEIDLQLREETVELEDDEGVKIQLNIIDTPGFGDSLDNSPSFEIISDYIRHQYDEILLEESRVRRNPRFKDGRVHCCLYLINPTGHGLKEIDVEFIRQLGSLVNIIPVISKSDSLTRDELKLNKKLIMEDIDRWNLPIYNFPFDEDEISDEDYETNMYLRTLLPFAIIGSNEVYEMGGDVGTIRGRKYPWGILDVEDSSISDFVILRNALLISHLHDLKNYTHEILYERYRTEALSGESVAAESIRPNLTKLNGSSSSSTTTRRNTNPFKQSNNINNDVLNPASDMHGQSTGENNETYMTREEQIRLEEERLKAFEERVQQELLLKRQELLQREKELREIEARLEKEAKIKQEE
T2 sequence (P32468 whole entry, chain 2 of 4): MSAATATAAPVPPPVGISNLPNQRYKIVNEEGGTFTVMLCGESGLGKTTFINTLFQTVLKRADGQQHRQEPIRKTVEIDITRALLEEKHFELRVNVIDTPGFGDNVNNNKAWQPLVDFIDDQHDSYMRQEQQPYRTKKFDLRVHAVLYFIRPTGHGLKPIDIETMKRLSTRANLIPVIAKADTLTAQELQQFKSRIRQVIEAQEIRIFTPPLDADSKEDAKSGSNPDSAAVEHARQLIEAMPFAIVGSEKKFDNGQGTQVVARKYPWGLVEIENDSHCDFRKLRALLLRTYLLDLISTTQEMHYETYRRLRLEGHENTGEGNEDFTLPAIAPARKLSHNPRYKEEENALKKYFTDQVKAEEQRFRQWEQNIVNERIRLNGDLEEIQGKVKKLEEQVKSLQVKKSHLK
T2 sequence (P32457 whole entry, chain 3 of 4): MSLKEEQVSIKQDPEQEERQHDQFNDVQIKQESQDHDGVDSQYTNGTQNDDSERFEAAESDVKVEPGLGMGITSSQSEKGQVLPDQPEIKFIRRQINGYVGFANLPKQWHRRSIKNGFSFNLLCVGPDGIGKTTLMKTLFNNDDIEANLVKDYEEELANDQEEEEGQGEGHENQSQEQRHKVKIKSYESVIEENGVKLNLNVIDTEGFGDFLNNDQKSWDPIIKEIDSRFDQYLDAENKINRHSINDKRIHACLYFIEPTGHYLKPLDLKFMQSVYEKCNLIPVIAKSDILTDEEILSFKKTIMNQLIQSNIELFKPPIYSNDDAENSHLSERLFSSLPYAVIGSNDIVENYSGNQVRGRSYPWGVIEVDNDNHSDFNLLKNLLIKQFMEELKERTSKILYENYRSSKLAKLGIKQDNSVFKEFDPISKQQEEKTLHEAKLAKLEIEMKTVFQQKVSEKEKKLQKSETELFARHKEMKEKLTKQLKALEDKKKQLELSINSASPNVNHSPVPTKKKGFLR
T2 sequence (P25342 whole entry, chain 4 of 4): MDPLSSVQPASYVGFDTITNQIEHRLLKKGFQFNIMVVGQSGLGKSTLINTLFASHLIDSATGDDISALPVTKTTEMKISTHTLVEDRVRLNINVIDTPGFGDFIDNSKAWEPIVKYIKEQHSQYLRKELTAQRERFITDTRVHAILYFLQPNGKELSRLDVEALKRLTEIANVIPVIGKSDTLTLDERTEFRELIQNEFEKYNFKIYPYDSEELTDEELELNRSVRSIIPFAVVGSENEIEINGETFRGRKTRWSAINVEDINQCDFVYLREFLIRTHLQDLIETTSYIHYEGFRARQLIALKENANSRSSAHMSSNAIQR

B1: GST-Bni5-Ext-HR2-HR3 (GST-Bni5(306-448)) (domain or fragment, S. cerevisiae, UniProt P53890 306-448, looked up)
chain: QKKMANFETRRPTNPFRVISVSSNSNSRNGSRKSSLNKYDSPVSSPITSASELGSIAKLEKRHDYLSMKCIKLQKEIDYLNKMNAQGSLSMEDGKRLHRAVVKLQEYLDKKTKEKYEVGVLLSRHLRKQIDRGENGQFWIGTK
notes: Bni5, S. cerevisiae, residues 306-448 (Ext, HR2 and HR3); also called GST-Ext-HR2-HR3; pGEX-4T-1-Bni5(306-448); source: E. coli Rosetta DE3, purified (Glutathione Sepharose 4B); kept on the resin for pull-downs, eluted with glutathione for the septin filament assay; not shown: GST, N-terminal, kept
Consider B1, for which the binding result in experiment [1], in experiment [2] and in experiment [3] was “binds” throughout.

B2: GST-Bni5-Ext-HR2 (GST-Bni5(306-393)) (domain or fragment, S. cerevisiae, UniProt P53890 306-393, looked up)
chain: QKKMANFETRRPTNPFRVISVSSNSNSRNGSRKSSLNKYDSPVSSPITSASELGSIAKLEKRHDYLSMKCIKLQKEIDYLNKMNAQGS
notes: Bni5, S. cerevisiae, residues 306-393 (Ext plus helical region HR2); also called GST-Ext-HR2; pGEX-4T-1-Bni5(306-393); source: E. coli Rosetta DE3, purified (Glutathione Sepharose 4B); kept on the resin for pull-downs, eluted with glutathione for the septin filament assay; not shown: GST, N-terminal, kept
For the molecule B2, the binding result in experiment [2] and in experiment [3] was “binds” in each case.
